According to US20260167699A1 (Chugai, published 2026):
Numbering of substitutions follows the chain as printed. Blank lines part the entries; values can stand above or below the binder they belong to.

Columns and labels:
FcγRIa = target: T1, FcγRIa (human, UniProt P12314 16-292); test: SPR (Biacore), binding relative to GpH7-A5/GpH7-B3/GpL16-k0 x100;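 also: surface plasmon resonance at 25 °C, antibody captured on a sensor chip and soluble FcγR flowed over it in HBS-EP+ running buffer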
T1 construct: extracellular domain; also called 1a

FcγRIIa(R) = target: T2, FcγRIIa(R) (human, UniProt P12318 34-217); test: as above
T2 construct: extracellular domain; also called FcγRIIa R type; 2aR
T2 sequence: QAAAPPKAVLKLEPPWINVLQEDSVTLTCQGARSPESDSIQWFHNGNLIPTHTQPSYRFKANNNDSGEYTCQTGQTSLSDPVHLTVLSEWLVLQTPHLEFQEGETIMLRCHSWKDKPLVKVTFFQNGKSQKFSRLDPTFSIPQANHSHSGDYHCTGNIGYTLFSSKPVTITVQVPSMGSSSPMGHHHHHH

FcγRIIa(H) = target: T3, FcγRIIa(H) (human, UniProt P12318 34-217); test: as above
T3 construct: extracellular domain; also called FcγRIIa H type; 2aH
T3 sequence: T2 sequence with R134H

FcγRIIb = target: T4, FcγRIIb (human, UniProt P31994 43-217); test: as above
T4 construct: extracellular domain; also called 2b
T4 sequence: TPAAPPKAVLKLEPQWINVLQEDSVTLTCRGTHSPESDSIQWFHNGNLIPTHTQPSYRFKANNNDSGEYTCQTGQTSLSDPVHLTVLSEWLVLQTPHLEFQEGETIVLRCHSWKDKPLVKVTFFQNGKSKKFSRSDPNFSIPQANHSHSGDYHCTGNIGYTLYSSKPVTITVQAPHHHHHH

[1] = target: T5, FcγRIa extracellular domain with C-terminal His tag (human, UniProt P12314 16-292); test: SPR; % of GpH7-A5/GpH7-B3/GpL16-k0
T5 construct: extracellular domain; also called 1a; CD64

[2] = target: T6, FcγRIIa(R) extracellular domain with C-terminal His tag (human, UniProt P12318 34-217); test: SPR; % of GpH7-A5/GpH7-B3/GpL16-k0
T6 construct: extracellular domain; R131 allotype; also called 2aR; CD32
T6 sequence: T2 sequence

[3] = target: T7, FcγRIIa(H) extracellular domain with C-terminal His tag (human, UniProt P12318 34-217); test: SPR; % of GpH7-A5/GpH7-B3/GpL16-k0
T7 construct: extracellular domain; H131 allotype; also called 2aH; CD32
T7 sequence: T2 sequence with R134H

[4] = target: T8, FcγRIIb extracellular domain with C-terminal His tag (human, UniProt P31994 43-217); test: SPR; % of GpH7-A5/GpH7-B3/GpL16-k0
T8 construct: extracellular domain; also called 2b; CD32
T8 sequence: T4 sequence

[5] = target: T9, FcγRIIIa extracellular domain with C-terminal His tag (human, UniProt P08637 17-208); test: SPR; % of GpH7-A5/GpH7-B3/GpL16-k0
T9 construct: extracellular domain; also called 3a; CD16
T9 sequence (P08637 other isoform, or with tags, fused parts or gaps): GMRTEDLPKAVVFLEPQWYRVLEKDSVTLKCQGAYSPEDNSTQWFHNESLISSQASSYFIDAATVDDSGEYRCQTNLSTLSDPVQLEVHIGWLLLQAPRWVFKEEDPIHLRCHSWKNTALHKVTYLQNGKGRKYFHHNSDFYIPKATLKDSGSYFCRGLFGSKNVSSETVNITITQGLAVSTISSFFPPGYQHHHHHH

T5 sequence (P12314 other isoform, or with tags, fused parts or gaps): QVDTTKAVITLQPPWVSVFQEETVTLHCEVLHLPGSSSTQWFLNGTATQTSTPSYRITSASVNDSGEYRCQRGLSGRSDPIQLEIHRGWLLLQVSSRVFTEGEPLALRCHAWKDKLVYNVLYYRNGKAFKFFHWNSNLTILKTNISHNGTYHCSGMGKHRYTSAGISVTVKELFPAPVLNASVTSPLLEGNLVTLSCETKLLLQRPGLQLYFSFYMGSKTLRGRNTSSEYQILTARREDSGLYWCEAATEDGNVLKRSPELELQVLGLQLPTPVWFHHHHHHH
T1 sequence (P12314 other isoform, or with tags, fused parts or gaps): as above

He/Con 1a (FcγRIa): 103%
He/Con 2aR (FcγRIIa(R)): 105%
He/Con 2aH (FcγRIIa(H)): 112%
He/Con 2b (FcγRIIb): 94.2%
B1: GpH7-A5/GpH7-B3 variant H268_04F/GpL16-k0 (antibody, human IgG1, kappa)
heavy 1: not shown
heavy 2: not shown
light: DIVMTQSPLSLPVTPGEPASISCQASESLVHSNRNTYLHWYLQKPGQSPQLLIYKVSNRFSGVPDRFSGSGSGTDFTLKISRVEAEDVGVYYCSQNTHVPPTFGQGTKVEIERTVAAPSVFIFPPSDEQLKSGTASVVCLLNNFYPREAKVQWKVDNALQSGNSQESVTEQDSKDSTYSLSSTLTLSKADYEKHKVYACEVTHQGLSSPVTKSFNRGEC
notes: heterodimerized IgG1, one H chain mutated; also called He Ab

He/Con 1a [1]: 109%
He/Con 2aR [2]: 114%
He/Con 2aH [3]: 109%
He/Con 2b [4]: 112%
He/Con 3a [5]: 99.3%
B2: GpH7-A5/GpH7-B3 variant T335_16H/GpL16-k0 (antibody, human IgG1, kappa)
heavy 1: not shown
heavy 2: not shown
light: B1 light
notes: heterodimerized IgG1 (He Ab), mutation in one H chain only; also called He Ab

He/Con 1a [1]: 108%
He/Con 2aR [2]: 116%
He/Con 2aH [3]: 110%
He/Con 2b [4]: 111%
He/Con 3a [5]: 100%
B4: GpH7-A5/GpH7-B3 variant T335_13S/GpL16-k0 (antibody, human IgG1, kappa)
heavy 1: not shown
heavy 2: not shown
light: B1 light
notes: as for B2

He/Con 1a (FcγRIa): 104%
He/Con 2aR (FcγRIIa(R)): 77.3%
He/Con 2aH (FcγRIIa(H)): 153%
He/Con 2b (FcγRIIb): 60.7%
B6: GpH7-A5/GpH7-B3 variant G236_20W/GpL16-k0 (antibody, human IgG1, kappa)
heavy 1: not shown
heavy 2: not shown
light: B1 light
notes: as for B1

He/Con 1a (FcγRIa): 103%
He/Con 2aR (FcγRIIa(R)): 117%
He/Con 2aH (FcγRIIa(H)): 100%
He/Con 2b (FcγRIIb): 120%
B7: GpH7-A5/GpH7-B3 variant H268_03V/GpL16-k0 (antibody, human IgG1, kappa)
heavy 1: not shown
heavy 2: not shown
light: B1 light
notes: as for B1

He/Con 1a (FcγRIa): 104%
He/Con 2aR (FcγRIIa(R)): 134%
He/Con 2aH (FcγRIIa(H)): 100%
He/Con 2b (FcγRIIb): 151%
B8: GpH7-A5/GpH7-B3 variant H268_01G/GpL16-k0 (antibody, human IgG1, kappa)
heavy 1: not shown
heavy 2: not shown
light: B1 light
notes: as for B1

He/Con 1a [1]: 111%
He/Con 2aR [2]: 117%
He/Con 2aH [3]: 110%
He/Con 2b [4]: 118%
He/Con 3a [5]: 99.7%
B10: GpH7-A5/GpH7-B3 variant T335_15Y/GpL16-k0 (antibody, human IgG1, kappa)
heavy 1: not shown
heavy 2: not shown
light: B1 light
notes: as for B2

Continued, binder first:

B3: GpH7-A5/GpH7-B3 variant E269_02A/GpL16-k0 (antibody, human IgG1, kappa)
heavy 1: not shown
heavy 2: not shown
light: B1 light
notes: as for B1
He/Con 1a (FcγRIa): 101%
He/Con 2aR (FcγRIIa(R)): 70.2%
He/Con 2aH (FcγRIIa(H)): 78.7%
He/Con 2b (FcγRIIb): 52.4%

B5: GpH7-A5/GpH7-B3 variant G236_02A/GpL16-k0 (antibody, human IgG1, kappa)
heavy 1: not shown
heavy 2: not shown
light: B1 light
notes: as for B1
He/Con 1a (FcγRIa): 99.1%
He/Con 2aR (FcγRIIa(R)): 145%
He/Con 2aH (FcγRIIa(H)): 145%
He/Con 2b (FcγRIIb): 101%

B9: GpH7-A5/GpH7-B3 variant D270_14T/GpL16-k0 (antibody, human IgG1, kappa)
heavy 1: not shown
heavy 2: not shown
light: B1 light
notes: as for B1
He/Con 1a (FcγRIa): 89.5%
He/Con 2aR (FcγRIIa(R)): 72.2%
He/Con 2aH (FcγRIIa(H)): 81.3%
He/Con 2b (FcγRIIb): 54.8%

B11: GpH7-A5/GpH7-B3 variant D270_08L/GpL16-k0 (antibody, human IgG1, kappa)
heavy 1: not shown
heavy 2: not shown
light: B1 light
notes: as for B1
He/Con 1a (FcγRIa): 93.2%
He/Con 2aR (FcγRIIa(R)): 62.8%
He/Con 2aH (FcγRIIa(H)): 81.8%
He/Con 2b (FcγRIIb): 50.8%

B12: GpH7-A5/GpH7-B3 variant E269_09D/GpL16-k0 (antibody, human IgG1, kappa)
heavy 1: not shown
heavy 2: not shown
light: B1 light
notes: as for B1
He/Con 1a (FcγRIa): 103%
He/Con 2aR (FcγRIIa(R)): 113%
He/Con 2aH (FcγRIIa(H)): 105%
He/Con 2b (FcγRIIb): 110%

B13: GpH7-A5/GpH7-B3 variant E269_13S/GpL16-k0 (antibody, human IgG1, kappa)
heavy 1: not shown
heavy 2: not shown
light: B1 light
notes: as for B1
He/Con 1a (FcγRIa): 99.8%
He/Con 2aR (FcγRIIa(R)): 65.8%
He/Con 2aH (FcγRIIa(H)): 70.7%
He/Con 2b (FcγRIIb): 50.2%

B14: GpH7-A5/GpH7-B3 variant E269_01G/GpL16-k0 (antibody, human IgG1, kappa)
heavy 1: not shown
heavy 2: not shown
light: B1 light
notes: as for B1
He/Con 1a (FcγRIa): 101%
He/Con 2aR (FcγRIIa(R)): 70.3%
He/Con 2aH (FcγRIIa(H)): 72.3%
He/Con 2b (FcγRIIb): 54.1%

B15: GpH7-A5/GpH7-B3 variant G236_10E/GpL16-k0 (antibody, human IgG1, kappa)
heavy 1: not shown
heavy 2: not shown
light: B1 light
notes: as for B1
He/Con 1a (FcγRIa): 92.6%
He/Con 2aR (FcγRIIa(R)): 124%
He/Con 2aH (FcγRIIa(H)): 116%
He/Con 2b (FcγRIIb): 115%
